T1: human IL-36R (on cells) (human, UniProt Q9HB29 20-575)
T1 sequence (looked up): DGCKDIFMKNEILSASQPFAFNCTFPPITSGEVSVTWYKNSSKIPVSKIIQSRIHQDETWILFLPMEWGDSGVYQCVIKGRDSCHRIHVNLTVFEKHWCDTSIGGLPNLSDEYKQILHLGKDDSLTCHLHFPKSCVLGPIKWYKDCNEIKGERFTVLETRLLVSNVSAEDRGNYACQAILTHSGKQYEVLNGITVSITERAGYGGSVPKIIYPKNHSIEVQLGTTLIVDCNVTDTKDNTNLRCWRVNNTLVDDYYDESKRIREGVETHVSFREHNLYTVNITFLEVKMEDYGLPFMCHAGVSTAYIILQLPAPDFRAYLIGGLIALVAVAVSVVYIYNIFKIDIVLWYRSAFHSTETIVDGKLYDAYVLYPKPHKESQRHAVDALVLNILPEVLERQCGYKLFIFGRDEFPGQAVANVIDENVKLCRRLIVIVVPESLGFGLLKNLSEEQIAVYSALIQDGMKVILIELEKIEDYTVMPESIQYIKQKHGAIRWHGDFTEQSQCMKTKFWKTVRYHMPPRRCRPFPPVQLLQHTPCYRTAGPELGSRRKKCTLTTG


Tests used:
Test in all cases: cell-based or functional assay
human IL-36R (on cells) [1] = target: T1, human IL-36R (on cells)
human IL-36R (on cells) [2] = target: T1, human IL-36R (on cells); remark: listed apart in the source
[3] = target: cynomolgus IL-36R (on cells, allelic variant not stated) (cynomolgus monkey), A0A2K5
cynomolgus IL-36R (on cells, allelic variant not stated) (cynomolgus monkey), A0A2K5, sequence (chain, as listed by the source mutant): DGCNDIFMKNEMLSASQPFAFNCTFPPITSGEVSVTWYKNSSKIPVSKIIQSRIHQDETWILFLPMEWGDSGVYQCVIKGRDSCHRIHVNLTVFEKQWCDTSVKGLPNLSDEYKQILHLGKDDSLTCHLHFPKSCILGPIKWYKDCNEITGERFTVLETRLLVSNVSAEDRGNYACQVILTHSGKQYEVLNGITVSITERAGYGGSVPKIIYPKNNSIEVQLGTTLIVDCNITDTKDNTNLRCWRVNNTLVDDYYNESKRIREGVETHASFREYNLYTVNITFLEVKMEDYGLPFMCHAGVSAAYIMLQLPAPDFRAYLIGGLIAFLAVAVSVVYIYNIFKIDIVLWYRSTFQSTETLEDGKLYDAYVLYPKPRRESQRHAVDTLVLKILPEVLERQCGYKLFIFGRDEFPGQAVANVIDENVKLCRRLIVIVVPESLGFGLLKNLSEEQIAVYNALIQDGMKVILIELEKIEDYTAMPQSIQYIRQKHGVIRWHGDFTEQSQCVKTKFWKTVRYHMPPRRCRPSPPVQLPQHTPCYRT

EC50 (nM), HEK human IL-36R IL-8 luciferase reporter assay, 20 ng/ml hIL-36β (human IL-36R (on cells) [1]) [nM] | EC50 (nM), HEK human IL-36R IL-8 luciferase reporter assay, 200 ng/ml hIL-36γ (human IL-36R (on cells) [1]) [nM] | EC50 (nM), IL-8 secretion by primary human monocytes, human IL-36β (human IL-36R (on cells) [2]) [nM] | EC50 (nM), IL-8 secretion by primary human monocytes, human IL-36γ (human IL-36R (on cells) [2]) [nM] | EC50 (nM), HEK cyno IL-36R IL-8 luciferase reporter assay, 300 ng/ml cIL-36γ [3] [nM] | Binder
0.267 | 0.093 | – | – | – | Chimeric 1D9 (APE3798) (antibody, V domains shown) VH: QVQLQQSGPELVKPGALVKISCKASGFTFTSYDINWVRQRPGQGLEWIGWIYPGDGSTKYNEKFKGKATLTADKSSSTAYMQLSSLTSENSAVYFCTRSFYTMDYWGQGTSVTVSS VL: DIVMTQAAPSVPVTPGESVSISCRSSKSLLHSNGNTYLYWFLQRPGQSPQLLISRMSNLASGVPDRFSGSGSGTAFTLRISRVEAEDVGVYYCMQHLEYPFTFGSGTKLEIK
1.3 | 3.1 | – | – | – | Chimeric 5D3 (APE3849) (antibody, V domains shown) VH: QVQLQQSGPELVRPGASVRMSCKASDYTFTNYWMHWVKQRPGQGLEWIGMFDPSNSVTRLNQKFKDKATLNVDKSSNTAYIQFSSLTFEDSAVYYCARTTSMIIGGFAYWGQGTLVTVSS VL: DIVMTQAAFSNPVTLGTSASISCRSSKSLLHSNGITYFYWYLQRPGQSPQLLIYQMSNLASGVPDRFSGSGSGTDFTLRISRVEAEDVGIYYCAQNLELPLTFGAGTKLELK
4.2 | 3.6 | 6 | 3 | 0.51 | Chimeric 18D4 (APE3847) (antibody, V domains shown) VH: DVQFQESGPGLVKPSQSLSLTCTVTGYSITSDFAWNWIRQFPGNKLEWMGYISYSGDTNYNPSLKSRISITRDTSKNQFFLQLNSVTTEDTATYFCAIRGPYSFTYWGPGTLVTVSS VL: DIQMTQTTSSLSASLGDRVTINCRASQDINNYLNWYQQKPDGTIRLLIYYTSRLHSGVPSRFSPNGSGTDYSLTINNLEQEDIATYFCQQGHTLPWTFGGGTKLEIK
– | 11 | – | – | – | Hzd 18D4 (APE5713) (antibody, V domains shown) VH: QVQFQESGPGLVKPSQTLSLTCTVSGYSITSDFAWNWIRQPPGKGLEWIGYISYSGDTNYNPSLKSRVTISRDTSKNQFSLKLSSVTAADTAVYFCAIRGPYSFTYWGQGTLVTVSS VL: DIQMTQSPSSLSASVGDRVTITCRASQDINNYLNWYQQKPGKAPKLLIYYTSRLHSGVPSRFSPSGSGTDYTFTISSLQPEDIATYYCQQGHTLPWTFGGGTKVEIK

Reference: patent US20200087408A1 (ANAPTYSBIO, published 2020)
